According to paper PMC8466755, “GPCR Pharmacological Profiling of Aaptamine from the Philippine Sponge Stylissa sp. Extends Its Therapeutic Potential for Noncommunicable Diseases” (Molecules, 2021):
Each block holds one compound with its values, some of them ahead of it.

Key:
[1] = biological target: delta opioid receptor (δ-OR, OPRD1); design: method as in PMID 27744679; conditions: calcium mobilization pathway; read-out: EC50 agonist, delta opioid receptor; cited from earlier work
[2] = biological target: T1, CCR3 (Homo sapiens, UniProt P51677); assay: PathHunter β-arrestin assay, positive allosteric modulation (PAM) mode; type: cell-based; conditions: control agonist; read-out: EC50 of positive control ligand
T1 sequence (P51677 1-355): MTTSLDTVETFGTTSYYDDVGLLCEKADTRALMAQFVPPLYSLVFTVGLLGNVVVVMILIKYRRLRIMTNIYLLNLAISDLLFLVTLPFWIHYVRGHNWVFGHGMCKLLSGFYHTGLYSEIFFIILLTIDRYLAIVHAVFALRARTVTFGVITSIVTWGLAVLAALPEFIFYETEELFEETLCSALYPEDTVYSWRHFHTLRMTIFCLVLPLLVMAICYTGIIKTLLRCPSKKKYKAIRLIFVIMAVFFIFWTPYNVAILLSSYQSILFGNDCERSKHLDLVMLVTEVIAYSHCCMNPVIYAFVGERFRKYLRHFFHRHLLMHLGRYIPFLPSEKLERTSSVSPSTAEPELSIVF
Procedure: (§1) Hit validation was performed by subjecting the aaptamine to an agonist, antagonist, and positive allosteric modulation (PAM) secondary screen utilizing thirteen GPCR biosensor assays (Arrestin) against the following targets: ADRA2A, ADRA2C, ADRB2, CCR1, CCR3, CXCR3, CXCR7, DRD2L, DRD2S, DRD4, HTR1E, OPRK1, and SSTR1. The assays were performed at 10-point concentrations using three-fold serial dilutions in duplicate. For all the assay formats, the final assay vehicle concentration was 1%.
(§2) For PAM assays, the cells were preincubated with the sample followed by agonist induction at the EC20 concentration. To the cells, 5 µL of 5X sample was added and incubated for 30 min at 37 °C or room temperature. Following the incubation period, 5 µL of the 6X EC20 agonist prepared in an assay buffer was added to the cells and incubated for 90 or 180 min at 37 °C or room temperature. The percent activity of aaptamine was calculated following this formula: % modulation = 100% × ((mean RLU of test sample − mean RLU of EC20 control)/(mean RLU of MAX control ligand − mean RLU of EC20 control)).

[3] = biological target: T2, CCR1 (Homo sapiens, UniProt P32246); assay: PathHunter β-arrestin assay, agonist mode; type: cell-based; conditions: dose-response, agonist mode
T2 sequence (P32246 1-355): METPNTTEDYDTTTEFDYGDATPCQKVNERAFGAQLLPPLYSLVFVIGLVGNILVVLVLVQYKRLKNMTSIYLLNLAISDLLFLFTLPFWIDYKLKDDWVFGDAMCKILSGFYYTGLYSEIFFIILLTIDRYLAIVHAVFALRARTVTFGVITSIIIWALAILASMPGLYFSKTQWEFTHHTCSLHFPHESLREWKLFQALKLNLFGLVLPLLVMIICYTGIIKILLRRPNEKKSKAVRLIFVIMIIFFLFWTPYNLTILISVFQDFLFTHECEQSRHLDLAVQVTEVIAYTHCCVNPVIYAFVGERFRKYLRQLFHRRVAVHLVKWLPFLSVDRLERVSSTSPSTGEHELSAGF
Procedure: Aaptamine (20 µM) was profiled in gpcrMAX panel biosensor assays (in agonist and antagonist modes) against a panel of 168 GPCRs. The assay was performed by DiscoverX Corporation (Fremont, CA) using PathHunter β -arrestin enzyme fragment complementation (EFC) technology, in a similar way to that described elsewhere. The PathHunter cell lines were taken from freezer stocks according to standard procedures. A total of 20 µL of cells were seeded into white 384-well plates and incubated at 37 °C for the appropriate time prior to testing.
For agonist determination, aaptamine was incubated with PathHunter cell lines to induce a response. To increase the concentration, intermediate dilution from 20 µM of aaptamine was performed to generate a 5X sample in an assay buffer. Then, 5 µL of 5X sample was added to the plate with PathHunter cells and incubated for 90 or 180 min at 37 °C or room temperature. The percentage activity of aaptamine was calculated following this formula: % activity = 100% × (mean RLU of test sample − mean RLU of vehicle control)/(mean MAX control ligand − mean RLU of vehicle control).
as §1

[4] = biological target: T3, CXCR3 (Homo sapiens, UniProt P49682); assay: PathHunter β-arrestin assay, positive allosteric modulation (PAM) mode; type: cell-based; conditions: control agonist; read-out: EC50 of positive control ligand
T3 sequence (P49682 1-368): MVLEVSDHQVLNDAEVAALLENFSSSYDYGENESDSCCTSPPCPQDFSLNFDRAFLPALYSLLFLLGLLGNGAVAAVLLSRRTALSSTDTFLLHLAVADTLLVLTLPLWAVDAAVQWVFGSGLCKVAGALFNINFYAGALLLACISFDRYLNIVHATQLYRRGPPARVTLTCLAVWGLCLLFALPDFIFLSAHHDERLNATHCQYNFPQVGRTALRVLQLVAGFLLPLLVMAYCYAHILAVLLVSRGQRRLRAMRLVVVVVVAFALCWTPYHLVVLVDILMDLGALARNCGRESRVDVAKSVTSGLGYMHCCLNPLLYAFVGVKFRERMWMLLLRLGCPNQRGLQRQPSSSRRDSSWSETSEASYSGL
Procedure: as §1, §2

Compound: COc1cc2ccnc3c2c(c1O)NC=C3 [9-demethyl aaptamine]
EC50 [1]: 4100 nM

Compound: COC1=Cc2ccnc3ccnc(c23)C1=O [demethyl(oxy)-aaptamine]
EC50 [1]: 2300 nM

Compound: CXCL11: ligand used as positive control for CXCR3
EC50 [4]: 6.7 nM

The next lines start with the values.

EC50 [2]: 3 nM
Compound: CCL3: ligand used as positive control for CCR3

EC50 [3]: 26 nM
Compound: CCL13: ligand used as positive control for CCR1
